In assay [1] the target is Nck-GBT9 (full-length Nck in the bait vector pGBT9) (UniProt P04386 1-147; P16333 1-377). The assay can be described thus: yeast two-hybrid (HF7c); - means no growth on selective medium. As to the method:
(§1) Yeast transformation and colony analysis were performed according to the manufacturer's instructions (Matchmaker Two-Hybrid System Protocol, CLONTECH).

Assay [2] deals with T1, full length WASP cloned into the bait vector pGBT9 (Gal4 binding domain fusion) (UniProt P04386 1-147; P42768 1-502).
T1 construct: also called WAS protein
The assay is described as above. As to the method: as §1

B1: pGAD424 without insert (Gal4 activation domain alone) (other, UniProt P04386 768-881, looked up)
chain: ANFNQSGNIADSSLSFTFTNSSNGPNLITTQTNSQALSQPIASSNVHDNFMNNEITASKIDDGNNSKPLSPGWTDQTAYNAFGITTGMFNTTTMDDVYNYLFDDEDTPPNPKKE
notes: also called None (pGAD424)
Turning to B1, the binding result in assay [1] and in assay [2] was “no binding” in each case.

B2: human TRAF1 (amino acids 62-416) in pGAD424 (other, UniProt Q13077 62-416, looked up, not shown: large carriers)
chain: LQSISPGSRLRTQEKAHPEVAEAGIGCPFAGVGCSFKGSPQSVQEHEVTSQTSHLNLLLGFMKQWKARLGCGLESGPMALEQNLSDLQLQAAVEVAGDLEVDCYRAPCSESQEELALQHFMKEKLLAELEGKLRVFENIVAVLNKEVEASHLALATSIHQSQLDRERILSLEQRVVELQQTLAQKDQALGKLEQSLRLMEEASFDGTFLWKITNVTRRCHESACGRTVSLFSPAFYTAKYGYKLCLRLYLNGDGTGKRTHLSLFIVIMRGEYDALLPWPFRNKVTFMLLDQNNREHAIDAFRPDLSSASFQRPQSETNVASGCPLFFPLSKLQSPKHAYVKDDTMFLKCIVETST
notes: Control prey; also called tumor necrosis factor receptor-associated factor 1
As for B2, the binding result in assay [1] and in assay [2] was “no binding” throughout.

The record behind these values is US20020199211A1 (CHILDREN S MEDICAL CENTER, published 2002).
